Measurements as given in patent US20230136228A1 (LAMKAP BIO ALPHA, published 2023).

What was measured:
human CD3ε [1] = molecular target: T1, human CD3ε (human, UniProt P07766 23-207); assay: flow cytometry, Jurkat cells
T1 construct: whole, on cells; Present on cells as part of the CD3/TCR complex; also called CD3 epsilon

[2] = molecular target: T2, human CEACAM5 (carcinoembryonic antigen, CEA), cell surface (human, UniProt P06731 35-685); assay: flow cytometry, MKN-45 cells
T2 construct: whole, on cells; also called CD66e
T2 sequence (looked up): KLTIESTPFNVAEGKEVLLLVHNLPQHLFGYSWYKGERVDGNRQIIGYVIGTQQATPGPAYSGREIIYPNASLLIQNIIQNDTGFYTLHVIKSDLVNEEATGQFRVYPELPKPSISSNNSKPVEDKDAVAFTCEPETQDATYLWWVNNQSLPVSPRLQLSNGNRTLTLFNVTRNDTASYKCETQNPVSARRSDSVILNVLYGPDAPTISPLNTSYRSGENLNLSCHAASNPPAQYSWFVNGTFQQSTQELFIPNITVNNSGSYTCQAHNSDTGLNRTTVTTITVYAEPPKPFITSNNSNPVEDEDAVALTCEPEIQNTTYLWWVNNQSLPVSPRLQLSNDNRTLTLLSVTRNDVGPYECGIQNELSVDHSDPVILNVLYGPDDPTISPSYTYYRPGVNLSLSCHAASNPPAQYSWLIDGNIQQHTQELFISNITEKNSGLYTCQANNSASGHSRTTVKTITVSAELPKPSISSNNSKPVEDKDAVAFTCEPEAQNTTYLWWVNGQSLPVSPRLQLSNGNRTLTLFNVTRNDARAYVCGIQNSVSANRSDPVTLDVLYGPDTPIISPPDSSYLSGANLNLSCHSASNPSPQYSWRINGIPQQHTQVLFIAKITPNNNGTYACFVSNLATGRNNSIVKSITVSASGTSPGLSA
Source text: Examples of cells that can be used include CEACAM5-positive cell lines such as the gastric adenocarcinoma cell line MKN45 (expressing 155′000 CEACAM5 molecules per cell), or the pancreatic adenocarcinoma cell line HPAF-II (expressing 108′000 CEACAM5 molecules per cell) or the colorectal adenocarcinoma cell line LS174T (expressing 26′000 CEACAM5 molecules per cell) and CEACAM5-negative cell lines, such as the lung carcinoma cell line A549 and the MKN45 CEACAM5-knock out cell line generated by CRISPR-CAS9 methodology. Cell staining and binding assessment can be performed as described above. Binding of the bsAb of the invention at 200 nM, 1000 nM and 5000 nM is 40% and higher compared to binding of TCB2014 (see Table 4 and also FIGS. 11 and 14).

[3] = molecular target: T2, human CEACAM5 (carcinoembryonic …); assay: flow cytometry, CEA positive cells
[4] = molecular target: T3, shed soluble CEACAM5 (sCEA) (human, UniProt P06731 35-685, limits assumed); assay: cell-based or functional assay
T3 sequence (looked up): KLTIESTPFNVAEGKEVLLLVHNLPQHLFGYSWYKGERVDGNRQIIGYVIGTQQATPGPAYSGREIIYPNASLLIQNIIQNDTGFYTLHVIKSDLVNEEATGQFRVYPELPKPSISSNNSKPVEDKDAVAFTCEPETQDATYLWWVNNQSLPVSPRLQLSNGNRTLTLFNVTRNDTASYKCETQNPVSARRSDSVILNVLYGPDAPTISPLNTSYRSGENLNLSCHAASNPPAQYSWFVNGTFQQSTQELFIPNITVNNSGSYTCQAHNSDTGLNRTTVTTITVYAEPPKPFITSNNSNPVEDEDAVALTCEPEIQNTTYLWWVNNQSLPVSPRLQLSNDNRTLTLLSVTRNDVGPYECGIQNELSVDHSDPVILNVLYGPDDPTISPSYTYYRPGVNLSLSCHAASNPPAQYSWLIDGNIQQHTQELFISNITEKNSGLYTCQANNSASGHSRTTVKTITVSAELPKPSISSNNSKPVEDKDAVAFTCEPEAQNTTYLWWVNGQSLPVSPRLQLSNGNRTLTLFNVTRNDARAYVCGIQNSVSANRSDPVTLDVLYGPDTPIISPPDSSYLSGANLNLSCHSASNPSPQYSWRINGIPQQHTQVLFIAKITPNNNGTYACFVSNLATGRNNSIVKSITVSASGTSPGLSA

[5] = molecular target: T2, human CEACAM5 (carcinoembryonic …); assay: cell-based or functional assay
human CD3ε [6] = molecular target: T1, human CD3ε; assay: flow cytometry, primary CD4+ and CD8+ T-cells

T1 sequence (P07766 23-207): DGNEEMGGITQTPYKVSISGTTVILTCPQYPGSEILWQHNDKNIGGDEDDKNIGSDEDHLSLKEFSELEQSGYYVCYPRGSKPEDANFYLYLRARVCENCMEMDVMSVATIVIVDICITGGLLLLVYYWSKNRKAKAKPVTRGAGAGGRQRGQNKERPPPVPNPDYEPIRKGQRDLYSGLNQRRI

Row | Binder | binding result (human CD3ε [1]) | EC50 [2] [nM] | Top MFI value [2] [MFI] | binding higher than TCB2014 (at 200 nM, 1000 nM and 5000 nM) [2] [%] | binding higher than TCB2014 (at 200 nM) [3] [%] | EC50 fold change compared to no shed CEA condition, sCEA 0 µg/mL (reference) [4] [fold] | EC50 fold change compared to no shed CEA condition, sCEA 0.2 µg/mL [4] [fold] | EC50 fold change compared to no shed CEA condition, sCEA 1 µg/mL [4] [fold] | EC50 fold change compared to no shed CEA condition, sCEA 5 µg/mL [4] [fold] | Killing EC50, HPAFII cells (TDCC, LDH release) [5] [nM] | Killing EC50, LS174T cells (TDCC, LDH release) [5] [nM] | Killing EC50, MKN45 cells (TDCC, LDH release) [5] [nM] | binding result (human CD3ε [6])
1 | AB1 L3-1/D (bispecific antibody, human IgG1, kappa, lambda, L234A L235A, KL CEAxCD3 bispecific antibody, hIgG1 L234A+L235A) heavy: not shown light 1: EIVLTQSPATLSLSPGERATLSCRASQSVNSNLNWYQQKPGQAPRLLIYHGSNRATGIPARFSGSGSGTDFTLTISSLEPEDFAVYYCQQFDLRHEHNTFGQGTKVEIKRTVAAPSVFIFPPSDEQLKSGTASVVCLLNNFYPREAKVQWKVDNALQSGNSQESVTEQDSKDSTYSLSSTLTLSKADYEKHKVYACEVTHQGLSSPVTKSFNRGEC light 2: QTVVTQEPSLTVSPGGTVTLTCRSSTGAVTTSNYANWFQQKPGQAPRGLIGGTNKRAPGTPARFSGSLLGGKAALTLSGAQPEDEAEYYCALWYKQRWVFGGGTKLTVLGQPKAAPSVTLFPPSSEELQANKATLVCLISDFYPGAVTVAWKADSSPVKAGVETTTPSKQSNNKYAASSYLSLTPEQWKSHRSYSCQVTHEGSTVEKTVAPTECS | binds | – | – | – | – | – | – | – | – | – | – | – | –
2 | AB60L3-1/N (bispecific antibody, human IgG1, kappa, lambda, L234A L235A, Kappa-lambda body, lead optimization wave 2) heavy: EVQLVESGGGLVQPGGSLKLSCAASGFTFNTYAMNWVRQAPGKGLEWVGRIRSKYNNYATYYADSVKDRFTISRDDSKNTAYLQMNSLKTEDTAVYYCVRHGNFGNSYVSWFAYWGQGTLVTVSSASTKGPSVFPLAPSSKSTSGGTAALGCLVKDYFPEPVTVSWNSGALTSGVHTFPAVLQSSGLYSLSSVVTVPSSSLGTQTYICNVNHKPSNTKVDKRVEPKSCDKTHTCPPCPAPEAAGGPSVFLFPPKPKDTLMISRTPEVTCVVVDVSHEDPEVKFNWYVDGVEVHNAKTKPREEQYNSTYRVVSVLTVLHQDWLNGKEYKCKVSNKALAAPIEKTISKAKGQPREPQVYTLPPSREEMTKNQVSLTCLVKGFYPSDIAVEWESNGQPENNYKTTPPVLDSDGSFFLYSKLTVDKSRWQQGNVFSCSVMHEALHNHYTQKSLSLSPG light 1: EIVLTQSPATLSLSPGERATLSCRASQTVNANLNWYQQKPGQAPRLLIYYASNRATGIPARFSGSGSGTDFTLTISSLEPEDFAVYYCQQFDYHNEHNTFGQGTKVEIKRTVAAPSVFIFPPSDEQLKSGTASVVCLLNNFYPREAKVQWKVDNALQSGNSQESVTEQDSKDSTYSLSSTLTLSKADYEKHKVYACEVTHQGLSSPVTKSFNRGEC light 2: QTVVTQEPSLTVSPGGTVTLTCRSSTGAVTTSNYANWFQQKPGQAPRGLIGGTNKRAPGTPARFSGSLLGGKAALTLSGAQPEDEAEYYCALWYKQRWVFGGGTKLTVLGQPKAAPSVTLFPPSSEELQANKATLVCLISDFYPGAVTVAWKADSSPVKAGVETTTPSKQSNNKYAASSYLSLTPEQWKSHRSYSCQVTHEGSTVEKTVAPTECS | – | 64.1 | 989000 | ≥ 40 | ≥ 40 | 1 | 0.9 | 0.8 | 1.3 | 0.28 | 0.21 | 0.13 | binds
3 | AB54L3-1/N (bispecific antibody, human IgG1, kappa, lambda, L234A L235A, Kappa-lambda body, lead optimization wave 2) heavy: EVQLVESGGGLVQPGGSLKLSCAASGFTFNTYAMNWVRQAPGKGLEWVGRIRSKYNNYATYYADSVKDRFTISRDDSKNTAYLQMNSLKTEDTAVYYCVRHGNFGNSYVSWFAYWGQGTLVTVSSASTKGPSVFPLAPSSKSTSGGTAALGCLVKDYFPEPVTVSWNSGALTSGVHTFPAVLQSSGLYSLSSVVTVPSSSLGTQTYICNVNHKPSNTKVDKRVEPKSCDKTHTCPPCPAPEAAGGPSVFLFPPKPKDTLMISRTPEVTCVVVDVSHEDPEVKFNWYVDGVEVHNAKTKPREEQYNSTYRVVSVLTVLHQDWLNGKEYKCKVSNKALAAPIEKTISKAKGQPREPQVYTLPPSREEMTKNQVSLTCLVKGFYPSDIAVEWESNGQPENNYKTTPPVLDSDGSFFLYSKLTVDKSRWQQGNVFSCSVMHEALHNHYTQKSLSLSPG light 1: EIVLTQSPATLSLSPGERATLSCRASQEVHKNLNWYQQKPGQAPRLLIYHSSNRATGIPARFSGSGSGTDFTLTISSLEPEDFAVYYCQQFNYHHEHNTFGQGTKVEIKRTVAAPSVFIFPPSDEQLKSGTASVVCLLNNFYPREAKVQWKVDNALQSGNSQESVTEQDSKDSTYSLSSTLTLSKADYEKHKVYACEVTHQGLSSPVTKSFNRGEC light 2: QTVVTQEPSLTVSPGGTVTLTCRSSTGAVTTSNYANWFQQKPGQAPRGLIGGTNKRAPGTPARFSGSLLGGKAALTLSGAQPEDEAEYYCALWYKQRWVFGGGTKLTVLGQPKAAPSVTLFPPSSEELQANKATLVCLISDFYPGAVTVAWKADSSPVKAGVETTTPSKQSNNKYAASSYLSLTPEQWKSHRSYSCQVTHEGSTVEKTVAPTECS | – | 66.4 | 760000 | ≥ 40 | ≥ 40 | 1 | 0.9 | 4.6 | 5.7 | 0.1 | 0.13 | 0.11 | binds
4 | AB66L3-1/N (bispecific antibody, human IgG1, kappa, lambda, L234A L235A, Kappa-lambda body, lead optimization wave 2) heavy: EVQLVESGGGLVQPGGSLKLSCAASGFTFNTYAMNWVRQAPGKGLEWVGRIRSKYNNYATYYADSVKDRFTISRDDSKNTAYLQMNSLKTEDTAVYYCVRHGNFGNSYVSWFAYWGQGTLVTVSSASTKGPSVFPLAPSSKSTSGGTAALGCLVKDYFPEPVTVSWNSGALTSGVHTFPAVLQSSGLYSLSSVVTVPSSSLGTQTYICNVNHKPSNTKVDKRVEPKSCDKTHTCPPCPAPEAAGGPSVFLFPPKPKDTLMISRTPEVTCVVVDVSHEDPEVKFNWYVDGVEVHNAKTKPREEQYNSTYRVVSVLTVLHQDWLNGKEYKCKVSNKALAAPIEKTISKAKGQPREPQVYTLPPSREEMTKNQVSLTCLVKGFYPSDIAVEWESNGQPENNYKTTPPVLDSDGSFFLYSKLTVDKSRWQQGNVFSCSVMHEALHNHYTQKSLSLSPG light 1: EIVLTQSPATLSLSPGERATLSCHSSQVVNKNLNWYQQKPGQAPRLLIYHGSNRATGIPARFSGSGSGTDFTLTISSLEPEDFAVYYCQQFDYFREHNTFGQGTKVEIKRTVAAPSVFIFPPSDEQLKSGTASVVCLLNNFYPREAKVQWKVDNALQSGNSQESVTEQDSKDSTYSLSSTLTLSKADYEKHKVYACEVTHQGLSSPVTKSFNRGEC light 2: QTVVTQEPSLTVSPGGTVTLTCRSSTGAVTTSNYANWFQQKPGQAPRGLIGGTNKRAPGTPARFSGSLLGGKAALTLSGAQPEDEAEYYCALWYKQRWVFGGGTKLTVLGQPKAAPSVTLFPPSSEELQANKATLVCLISDFYPGAVTVAWKADSSPVKAGVETTTPSKQSNNKYAASSYLSLTPEQWKSHRSYSCQVTHEGSTVEKTVAPTECS | – | 24.3 | 759000 | ≥ 40 | ≥ 40 | 1 | 1.2 | 2.1 | 3.1 | 0.2 | 0.22 | 0.05 | binds
